{"source": "patent US8361510B2", "about": "“Nanogels for cellular delivery of therapeutics” (Georgia Tech Research Corporation, priority 2008, dated 2013)", "key": {"[1]": {"assay": "siRNA release from nanogels in PBS containing 10% fetal bovine serum", "type": "physicochemical", "details": "after the first 12 hours, 37° C., PBS with 10% fetal bovine serum", "protocol": "[formula] The release of solutes from nanogels was performed in 10% serum to simulate physiological conditions. Release experiments were performed by dispersing 200 μL of loaded nanogels in 2.20 mL of 0.01 M phosphate buffered saline containing 10% fetal bovine serum (equilibrated at 37° C.) in 3.2 mL polycarbonate centrifuge tubes (Beckman Coulter, USA). The nanogel suspension was allowed to incubate at 37° C. while shaking. At specific time points, the tubes were centrifuged for […] at 687 000×g (at 37° C.), and an aliquot of supernatant (0.75 mL) was removed for UV-vis analysis. This volume was replaced with fresh buffer. […] The cumulative siRNA released was calculated by calculating the total moles detected in the supernatant as a function of time, as described in Equation 2.\nAll release studies were performed in triplicate for statistical analysis, using identical nanogel loading and release conditions."}, "Hey cells": {"system": "Hey cells", "assay": "Trypan blue exclusion assay", "type": "cell-based", "protocol": "Toxicity Studies—Trypan blue exclusion assay. Hey cells were plated onto an 8-well chamber slide (1×10^4 cells/well) and allowed to adhere overnight at 37° C. and 5% CO2. The media was removed, the wells washed with PBS, and the medium replaced. PNIPMAm nanogels, YSA-conjugated nanogels, and SCR-conjugated nanogels were added to cells and incubated for 72 h. Untreated cells were used as controls. After 72 h, the cells washed with PBS, and a 1:1 solution of trypan blue was added to each well. After 1 min, the trypan blue was removed, the cells were washed with PBS, fixed with 2% (v/v) paraformaldehyde, and air dried. Each well was then viewed via bright field microscopy to determine the number of stained (dead) versus unstained cells. Five fields were viewed for each treatment."}, "EGFR": {"system": "EGFR", "assay": "EGFR expression by immunoblotting in Hey cells", "type": "cell-based", "protocol": "Immunoblotting. Hey cells were plated into 6-well plates (5×10^5/well) and allowed to adhere overnight at 37° C., 5% CO2. The cells were lysed with 100 μL of lysis buffer (50 mM Tris-HCl, pH 7.5, 150 mM NaCl, 2 mM EDTA (Fisher), 2 mM EGTA (Fisher), 1 mM sodium orthovanadate, 2.5 mM sodium pyrophosphate, 1 mM β-gycerolphosphate, 1 mM phenylmethanesulfonyl fluoride, 10 μg/mL aprotinin, 10 μg/mL leupeptin, 1% Triton X-100, and 5% glycerol), and the cell lysates sonicated four times for five seconds each. The lysates were cleared by centrifugation at 11,000×g rcf for […] at 4° C. Cell lysates were prepared for analysis by the addition of an equal volume of Laemmli 2× sample buffer. The samples were heated to 95° C. for […] to denature the proteins. The proteins were separated on a 10% SDS-PAGE gel and transferred onto nitrocellulose. The blots were blocked with either 5% nonfat dry milk (NFDM) or 5% bovine serum albumin (BSA) in 10 mM Tris-buffered saline, pH 7.5 plus 1% Tween 20 (TBST, BioRad) for 1 hour at room temperature. The blots were probed with anti-EGFR antibody (Cell Signaling, Danvers, Mass.; cat. no. 4405) or with a β-actin antibody (Millipore, Billerica, Mass.; Mab1501) diluted in 5% NFDM or 5% BSA overnight, with shaking at 4° C. For EphA2 detection, the blots were probed with an anti-EphA2 polyclonal antibody (Santa Cruz Biotechnology, Santa Cruz, Calif.; sc-294). The blots were washed three times with TBST and probed with goat anti-rabbit IgG (Santa Cruz, sc-2004) or with goat anti-mouse IgG (Santa Cruz, sc-2005) linked to horseradish peroxidase (HRP). Bands were visualized on film (Pierce) using the ECL reagent, SuperSignal West Pico™ (Pierce).\nAs described above, we chose siRNA targeting EGFR; knockdown of this receptor is non-lethal, but has clinical relevance in the treatment of drug resistant ovarian carcinomas. To determine if we could effectively knockdown EGFR in vitro, EGFR siRNA was encapsulated at a concentration of 16.6 μg of EGFR siRNA/mg of nanogels, using the loading technique described above. […]"}}, "note": "Where no end group is shown, it is not given here."}
{"substance": "YSA-conjugated nanogels: core/shell pNIPMAm nanogels with YSA peptide coupled to shell amines via maleimide (EMCA) (YSAYPDSVPMMSC; also: coupled to nanogel shell amines via maleimide (EMCA))", "values": [{"measurement": "siRNA retained in the nanogels", "setting": "[1]", "result": "approximately 70%"}, {"measurement": "blue (dead) cells", "setting": "Hey cells", "result": "not observed"}, {"measurement": "EGFR expression relative to controls", "setting": "EGFR; Example 1, 4 h incubation, harvested at 48 hours, 1 mg nanogels/5×10^5 cells", "result": "small, statistically insignificant decrease"}, {"measurement": "EGFR expression of control treatments compared to untreated cells", "setting": "EGFR; Example 2", "result": "slight decrease"}]}
